Data from publication doi:10.1101/2024.07.24.604955.

Target: zebrafish Ctla-4, HA-tagged (pCDNA3.1-HA-Ctla-4) (zebrafish)
Experiment: Western blot under non-reducing and reducing conditions

stoichiometry N: 2
Substance: zebrafish Ctla-4, HA-tagged (pCDNA3.1-HA-Ctla-4) (receptor)
